Assay results published in patent US9062100B2, “Anti-human TROP-2 antibody having anti-tumor activity in vivo” (LIVTECH, INC., dated 2015).
Where no end group is shown, it is not given here.

Legend:
human TROP-2 (hTROP-2) [1] = biological target: T1, human TROP-2 (hTROP-2) (human); test: FACS on PK-59 cells
T1 chain: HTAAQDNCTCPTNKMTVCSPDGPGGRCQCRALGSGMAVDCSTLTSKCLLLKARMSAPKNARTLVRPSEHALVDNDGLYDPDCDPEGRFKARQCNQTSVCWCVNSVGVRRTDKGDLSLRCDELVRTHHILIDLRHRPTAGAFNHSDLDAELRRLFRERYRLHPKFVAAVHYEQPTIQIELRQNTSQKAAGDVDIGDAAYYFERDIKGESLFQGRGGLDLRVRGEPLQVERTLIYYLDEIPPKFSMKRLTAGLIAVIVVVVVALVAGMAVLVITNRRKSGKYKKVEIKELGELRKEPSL

human TROP-2 (hTROP-2) [2] = biological target: T1, human TROP-2 (hTROP-2); test: FACS on BxPC-3 cells
Table 8 peptide No. 1 = biological target: T2, Table 8 peptide No. 1 (human, not fully specified); test: PEPSCAN CLIPS peptide ELISA
T2 peptide: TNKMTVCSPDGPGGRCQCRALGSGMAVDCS

Table 8 peptide No. 2 = biological target: T3, Table 8 peptide No. 2 (human, not fully specified); test: PEPSCAN CLIPS peptide ELISA
T3 peptide: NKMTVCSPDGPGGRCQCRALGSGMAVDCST

Table 8 peptide No. 3 = biological target: T4, Table 8 peptide No. 3 (human, not fully specified); test: PEPSCAN CLIPS peptide ELISA
T4 peptide: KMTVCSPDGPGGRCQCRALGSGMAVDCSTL

Table 8 peptide No. 4 = biological target: T5, Table 8 peptide No. 4 (human, not fully specified); test: PEPSCAN CLIPS peptide ELISA
T5 peptide: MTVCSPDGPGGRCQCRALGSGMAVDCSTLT

Table 8 peptide No. 5 = biological target: T6, Table 8 peptide No. 5 (human, not fully specified); test: PEPSCAN CLIPS peptide ELISA
T6 peptide: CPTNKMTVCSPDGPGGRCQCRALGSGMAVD

Table 8 peptide No. 6 = biological target: T7, Table 8 peptide No. 6 (human, not fully specified); test: PEPSCAN CLIPS peptide ELISA
T7 peptide: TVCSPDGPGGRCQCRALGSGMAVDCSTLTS

Table 8 peptide No. 7 = biological target: T8, Table 8 peptide No. 7 (human, not fully specified); test: PEPSCAN CLIPS peptide ELISA
T8 peptide: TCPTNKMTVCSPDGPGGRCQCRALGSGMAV

Table 8 peptide No. 8 = biological target: T9, Table 8 peptide No. 8 (human, not fully specified); test: PEPSCAN CLIPS peptide ELISA
T9 peptide: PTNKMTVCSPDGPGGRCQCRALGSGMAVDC

Table 8 peptide No. 9 = biological target: T10, Table 8 peptide No. 9 (human, not fully specified); test: PEPSCAN CLIPS peptide ELISA
T10 peptide: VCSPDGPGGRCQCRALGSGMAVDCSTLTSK

Table 8 peptide No. 10 = biological target: T11, Table 8 peptide No. 10 (human, not fully specified); test: PEPSCAN CLIPS peptide ELISA
T11 peptide: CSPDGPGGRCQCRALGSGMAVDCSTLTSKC

Table 8 peptide No. 13 = biological target: T12, Table 8 peptide No. 13 (human, not fully specified); test: PEPSCAN CLIPS peptide ELISA
T12 peptide: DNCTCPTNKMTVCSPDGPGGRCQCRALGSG

Table 8 peptide No. 14 = biological target: T13, Table 8 peptide No. 14 (human, not fully specified); test: PEPSCAN CLIPS peptide ELISA
T13 peptide: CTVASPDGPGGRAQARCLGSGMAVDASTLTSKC

Table 8 peptide No. 15 = biological target: T14, Table 8 peptide No. 15 (human, not fully specified); test: PEPSCAN CLIPS peptide ELISA
T14 peptide: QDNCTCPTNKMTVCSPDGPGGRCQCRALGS

Table 8 peptide No. 16 = biological target: T15, Table 8 peptide No. 16 (human, not fully specified); test: PEPSCAN CLIPS peptide ELISA
T15 peptide: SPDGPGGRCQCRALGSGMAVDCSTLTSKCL

Table 8 peptide No. 17 = biological target: T16, Table 8 peptide No. 17 (human, not fully specified); test: PEPSCAN CLIPS peptide ELISA
T16 peptide: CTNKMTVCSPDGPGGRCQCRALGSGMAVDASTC

Table 8 peptide No. 18 = biological target: T17, Table 8 peptide No. 18 (human, not fully specified; cysteine pairing not given here); test: PEPSCAN CLIPS peptide ELISA
T17 peptide: TVCSPDGPGGRCQCR

Table 8 peptide No. 19 = biological target: T18, Table 8 peptide No. 19 (human, not fully specified); test: PEPSCAN CLIPS peptide ELISA
T18 peptide: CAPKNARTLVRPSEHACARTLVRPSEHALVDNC

Table 8 peptide No. 20 = biological target: T19, Table 8 peptide No. 20 (human, not fully specified); test: PEPSCAN CLIPS peptide ELISA
T19 peptide: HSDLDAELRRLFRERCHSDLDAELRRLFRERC

[3] = biological target: T20, recombinant protein of the extracellular region of hTROP-2 (human); test: ELISA of free antibody after equilibration with antigen in solution
T20 sequence: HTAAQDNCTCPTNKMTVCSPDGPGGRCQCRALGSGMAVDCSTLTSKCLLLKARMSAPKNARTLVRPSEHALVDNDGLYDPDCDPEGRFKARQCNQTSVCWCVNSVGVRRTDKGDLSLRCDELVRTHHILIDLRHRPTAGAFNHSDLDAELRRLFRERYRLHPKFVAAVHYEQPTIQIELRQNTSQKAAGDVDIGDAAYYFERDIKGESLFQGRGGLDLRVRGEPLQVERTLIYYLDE

B1: anti-hTROP-2 monoclonal antibody K5-107 (antibody, V domains shown)
VH: QVQLQQPGSELVRPGASVKLSCKASGYTFTSYWMHWVKQRHGQGLEWIGNIYPGGGYTNYDEKFKSKGTLTVDTSSSTAYMHLSSLTSEDSAVYYCTRSSVFDYWGQGTTLTVSS
VL: DILLTQSPAILSVSPGERVSFSCRASQNIGTSIHWFQQRTNGSPRLLIKYASESISGIPSRFSGSGSGTDFTLSINSVESEDIADYYCQQSNSWPFTFGSGTKLEIK
mean fluorescence intensity, times that with PE-labeled anti-mouse IgG only (human TROP-2 (hTROP-2) [1]): 89 times
mean fluorescence intensity, times that with PE-labeled anti-mouse IgG only (human TROP-2 (hTROP-2) [2]): 90 times
binding of K5-107 (Table 8 peptide No. 1): 2760
binding of K5-107 (Table 8 peptide No. 2): 2760
binding of K5-107 (Table 8 peptide No. 3): 2750
binding of K5-107 (Table 8 peptide No. 4): 2730
binding of K5-107 (Table 8 peptide No. 5): 2720
binding of K5-107 (Table 8 peptide No. 6): 2720
binding of K5-107 (Table 8 peptide No. 7): 2720
binding of K5-107 (Table 8 peptide No. 8): 2690
binding of K5-107 (Table 8 peptide No. 9): 2660
binding of K5-107 (Table 8 peptide No. 10): 2660
binding of K5-107 (Table 8 peptide No. 13): 1520
binding of K5-107 (Table 8 peptide No. 14): 1120
binding of K5-107 (Table 8 peptide No. 15): 874
binding of K5-107 (Table 8 peptide No. 16): 561
binding of K5-107 (Table 8 peptide No. 17): 380
binding of K5-107 (Table 8 peptide No. 18): 312
binding of K5-107 (Table 8 peptide No. 19): 284
binding of K5-107 (Table 8 peptide No. 20): 272
Kd [3]: 4.7 pM
